Results from patent publication US20050282181A1 (published 2005).

Biological target: T1, biotinylated soluble human IL-1RI ectodomain (human, UniProt P14778 18-336, biotinylated with EZ-Link Sulfo-NHS-SS-Biotin, approaching 2 mol biotin/mol receptor)
T1 construct: extracellular domain; also called biotinylated IL-1RI; biotinylated human IL-1RI
T1 sequence (looked up): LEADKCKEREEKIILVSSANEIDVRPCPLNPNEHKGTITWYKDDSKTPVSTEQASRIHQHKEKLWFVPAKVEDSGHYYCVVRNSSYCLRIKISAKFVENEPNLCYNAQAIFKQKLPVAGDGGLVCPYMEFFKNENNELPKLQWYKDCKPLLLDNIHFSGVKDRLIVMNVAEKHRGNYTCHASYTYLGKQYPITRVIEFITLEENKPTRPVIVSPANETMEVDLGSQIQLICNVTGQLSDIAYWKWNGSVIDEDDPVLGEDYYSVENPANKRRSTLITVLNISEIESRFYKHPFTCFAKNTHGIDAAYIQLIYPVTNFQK
Assay: SPR, IL-1α binding to biotinylated receptor

B1: human IL-1α (ligand, UniProt P01583 113-271, looked up)
chain: SAPFSFLSNVKYNFMRIIKYEFILNDALNQSIIRANDQYLTAAALHNLDEAVKFDMGAYKSSKDDAKITVILRISKTQLYVTAQDEDQPVLLKEMPEIPKTITGSETNLLFFWETHGTKNYFTSVAHPNLFIATKQDYWVCLAGGPPSITDFQILENQA
Kd: 1 nM
